Assay results reported in publication PMC5454378, “Histone deacetylase 10 structure and molecular function as a polyamine deacetylase” (Nature Communications, 2017).

Legend:
Assay in all cases: purified protein, by the assay type
[1] = substrate: CC(=O)NCCCCNCCCN; parameters: steady-state kinetics of acetylpolyamine deacetylation, discontinuous LC-MS after dansyl chloride derivatization; details: 50.0 °C
Description: (§1) To study steady-state kinetics with non-fluorogenic peptide substrates and acetylpolyamines, a discontinuous LC–MS was employed based on the protocol of assaying nonfluorogenic acetyllysine peptide substrates for HDAC6 (ref. [17]). Assays were performed in triplicate. Briefly, 5 μl of enzyme (0.050–20 μM) in HEPES buffer (20 mM HEPES (pH 7.5), 100 mM NaCl, 5 mM KCl, 1 mM MgCl2) was added to 35 μl of substrate solution to initiate the reaction. After incubation for 15–60 min at room temperature, the reaction was quenched by addition of 50 μl of 20 mM dansyl chloride dissolved in acetonitrile followed by 10 μl of NaHCO3 (1.6 M, pH 10.0). The deacetylation products were derivatized with dansyl chloride at 50 °C for 2 hrs. The deacetylation products were detected by LC–MS using a Waters SQD equipped with an Acquity UPLC (Waters, Milford, MA, USA) and quantified by using the standard curves generated from the mass signals of the corresponding deacetylated polyamines and peptides. Inhibition of HDAC10 activity was measured by using 0.49 μM zHDAC10 with 192 μM N^8-acetylspermidine. Data were analysed by logistic regression for IC50 determination and the inhibition constant Ki was calculated based on the Cheng-Prusoff equation, Ki=IC50 / (1+[S]/KM)[45]. Assays were performed in triplicate at room temperature. We next tested the PDAC activity of hHDAC10 and zHDAC10 against several polyamine substrates using the LC–MS assay (Fig. 2, Supplementary Fig. 3 and Supplementary Table 1). […] For hHDAC10 and zHDAC10, kcat/KM=2,900±200 and 4,600±300 M^−1 s^−1, respectively; in comparison, N^1-acetylspermidine was a poor substrate with kcat/KM=24±5 and 7±2 M^−1 s^−1, respectively. Substrate specificity trends observed for zHDAC10 and hHDAC10 matched those of the previously reported mammalian N^8-acetylspermidine deacetylase activity. […] As a negative control, we examined the N^8-acetylspermidine deacetylase activity of human and zebrafish HDAC6 (ref. [17]). HDAC6 preferentially catalyses the deacetylation of the peptide substrate RGK(ac)-AMC with a catalytic efficiency >100-fold greater than that for the deacetylation of N^8-acetylspermidine. Therefore, HDAC6 is clearly an acetyllysine deacetylase and HDAC10 is an N^8-acetylspermidine deacetylase. It is notable that the molecular function of HDAC10 coincides with the cellular function of the cytosolic PDAC indicated in Fig. 1a.

[2] = substrate: CC(=O)NCCCCN; parameters: steady-state kinetics of acetylpolyamine deacetylation, discontinuous LC-MS after dansyl chloride derivatization; details: 50.0 °C
Description: as §1

[3] = substrate: CC(=O)NCCCCCN; parameters: steady-state kinetics of acetylpolyamine deacetylation, discontinuous LC-MS after dansyl chloride derivatization; details: 50.0 °C
Description: as §1

[4] = substrate: CC(=O)NCCCC[C@H](NC(=O)[C@H](C)NC(=O)CNC(C)=O)C(=O)Nc1ccc2c(C)cc(=O)oc2c1; parameters: fluorogenic AMC-conjugated acetyllysine peptide deacetylation, steady-state kinetics
From the text: To determine steady-state kinetic parameters for the hydrolysis of a variety of acetylpolyamine and acetyllysine substrates, we prepared full-length recombinant HDAC10 from human (H. sapiens, hHDAC10) and zebrafish (D. rerio, zHDAC10). The CDs of these orthologues are highly similar based on 63%/79% sequence identity/similarity; only full-length constructs yielded soluble proteins. We first assayed the lysine deacetylase activity of these constructs against two commercially available aminomethylcoumarin (AMC)-conjugated fluorogenic acetyllysine peptides, GAK(ac)-AMC and RGK(ac)-AMC (molecular structures of all substrates are shown in Supplementary Fig. 2). […] These measurements were consistent with earlier studies reporting that HDAC10 activity was not measurable using fluorogenic peptide substrates. We also tested activity with 11 non-fluorogenic acetyllysine substrates using a […] chromatography–mass spectrometry (LC–MS)-based discontinuous assay[17] to avoid potential steric clashes that might occur with the bulky AMC group. These substrates included K(ac)NL and GAK(ac)NLQ, which mimic the peptide segment containing K73 in the proposed HDAC10 substrate MutS homologue 2 (MSH2)[22]. Again, we observed no or very low catalytic activity (Fig. 2 and Supplementary Table 1). In comparison with its closest relative, the cytosolic isozyme HDAC6 (ref. [17]), HDAC10 was clearly not an efficient lysine deacetylase.

[5] = substrate: CC(=O)NCCCN; parameters: steady-state kinetics of acetylpolyamine deacetylation, discontinuous LC-MS after dansyl chloride derivatization; details: 50.0 °C
Description: as §1

[6] = substrate: CC(=O)NCCCCCCCCN; parameters: steady-state kinetics of acetylpolyamine deacetylation, discontinuous LC-MS after dansyl chloride derivatization; details: 50.0 °C
Description: as §1

[7] = substrate: CC(=O)NCCCNCCCCN; parameters: steady-state kinetics of acetylpolyamine deacetylation, discontinuous LC-MS after dansyl chloride derivatization; details: 50.0 °C
Description: as §1

[8] = substrate: CC(=O)NCCCNCCCCNCCCN; parameters: steady-state kinetics of acetylpolyamine deacetylation, discontinuous LC-MS after dansyl chloride derivatization; details: 50.0 °C
Description: as §1

[9] = substrate: CC(=O)NCCCC[C@H](NC(C)=O)C(N)=O; parameters: discontinuous LC-MS deacetylation assay, dansylated product quantified, steady-state kinetics; details: 50.0 °C
Description: To study steady-state kinetics with non-fluorogenic peptide substrates and acetylpolyamines, a discontinuous LC–MS was employed based on the protocol of assaying nonfluorogenic acetyllysine peptide substrates for HDAC6 (ref. [17]). Assays were performed in triplicate. Briefly, 5 μl of enzyme (0.050–20 μM) in HEPES buffer (20 mM HEPES (pH 7.5), 100 mM NaCl, 5 mM KCl, 1 mM MgCl2) was added to 35 μl of substrate solution to initiate the reaction. After incubation for 15–60 min at room temperature, the reaction was quenched by addition of 50 μl of 20 mM dansyl chloride dissolved in acetonitrile followed by 10 μl of NaHCO3 (1.6 M, pH 10.0). The deacetylation products were derivatized with dansyl chloride at 50 °C for 2 hrs. The deacetylation products were detected by LC–MS using a Waters SQD equipped with an Acquity UPLC (Waters, Milford, MA, USA) and quantified by using the standard curves generated from the mass signals of the corresponding deacetylated polyamines and peptides. Inhibition of HDAC10 activity was measured by using 0.49 μM zHDAC10 with 192 μM N^8-acetylspermidine. Data were analysed by logistic regression for IC50 determination and the inhibition constant Ki was calculated based on the Cheng-Prusoff equation, Ki=IC50 / (1+[S]/KM)[45]. Assays were performed in triplicate at room temperature.

B1: zHDAC10Δ (Danio rerio) (protein)
chain: MASGSALIFDEEMSRYKLLWTDPACEIEVPERLTVSYEALRTHGLAQRCKAVPVRQATEQEILLAHSEEYLEAVKQTPGMNVEELMAFSKKYNDVYFHQNIYHCAKLAAGATLQLVDSVMKREVRNGMALVRPPGHHSQRSAANGFCVFNNVAIAALYAKKNYNLNRILIVDWDVHHGQGIQYCFEEDPSVLYFSWHRYEHQSFWPNLPESDYSSVGKGKGSGFNINLPWNKVGMTNSDYLAAFFHVLLPVAYEFDPELVIVSAGFDSAIGDPEGEMCALPEIFAHLTHLLMPLAAGKMCVVLEGGYNLTSLGQSVCQTVHSLLGDPTPRISGLGTACDSALESIQNVRNVQSSYWSSFKHLAQSETNPKRPRLDATNGGPKESSEPASESNPKKTAQDIVWPEPLKRMPASVRTVVVPPPGVELTLPKNCQHSGDISESTAKEVQRIRDKHFHDLTDQNILRSLGNIISVLDRMMRSDEVCNGCVVVSDLSVSVQCALQHALTEPAERVLVVYVGDGELPVKTNDGKVFLVQICTKETEDKCVNRLSLCLREGESLTAGFMQALLGLILPVAYEFNPALVLGIVGETAAKTGLMTVWGHMTCLIQGLARGRTLTLLQGYDKDLLELTVSALSGASISPLGPLRALKPEDVEMMEKQRQRLQERWGLLRCTVSES
notes: proteolytically (trypsin) nicked zHDAC10, heterodimer of PDAC and pseudo-deacetylase domains
- Km [1]: 70 ± 30 µM
- kcat [1]: 0.06 ± 0.007 s⁻¹
- kcat/Km [1]: 800 ± 100 M⁻¹ s⁻¹
- Km [2]: 80 ± 30 µM
- kcat [2]: 0.081 ± 0.009 s⁻¹
- kcat/Km [2]: 980 ± 90 M⁻¹ s⁻¹
- Km [3]: 60 ± 10 µM
- kcat [3]: 0.036 ± 0.002 s⁻¹
- kcat/Km [3]: 600 ± 80 M⁻¹ s⁻¹
- Km [4]: 40 ± 20 µM

B2: acetylpolyamine amidohydrolase (APAH) (Mycoplana ramosa) (protein)
chain: MRVIFSEDHKLRNAKTELYGGELVPPFEAPFRAEWILAAVKEAGFDDVVAPARHGLETVLKVHDAGYLNFLETAWDRWKAAGYKGEAIATSFPVRRTSPRIPTDIEGQIGYYCNAAETAISPGTWEAALSSMASAIDGADLIAAGHKAAFSLCRPPGHHAGIDMFGGYCFINNAAVAAQRLLDKGAKKIAILDVDFHHGNGTQDIFYERGDVFFASLHGDPAEAFPHFLGYAEETGKGAGAGTTANYPMGRGTPYSVWGEALTDSLKRIAAFGAEAIVVSLGVDTFEQDPISFFKLTSPDYITMGRTIAASGVPLLVVMEGGYGVPEIGLNVANVLKGVAG
- Km [1]: 80 ± 20 µM
- kcat [1]: 2.5 ± 0.3 s⁻¹
- kcat/Km [1]: 30000 ± 5000 M⁻¹ s⁻¹
- Km [5]: 180 ± 60 µM
- kcat [5]: 1.3 ± 0.2 s⁻¹
- kcat/Km [5]: 7000 ± 1000 M⁻¹ s⁻¹
- Km [6]: 110 ± 20 µM
- kcat [6]: 1.1 ± 0.1 s⁻¹
- kcat/Km [6]: 10000 ± 1000 M⁻¹ s⁻¹
- Km [7]: 70 ± 20 µM
- kcat [7]: 0.6 ± 0.05 s⁻¹
- kcat/Km [7]: 7400 ± 600 M⁻¹ s⁻¹
- Km [3]: 22 ± 4 µM
- kcat [3]: 1.5 ± 0.1 s⁻¹
- kcat/Km [3]: 68000 ± 7000 M⁻¹ s⁻¹
- Km [8]: 60 ± 10 µM
- kcat [8]: 0.2 ± 0.01 s⁻¹
- kcat/Km [8]: 2500 ± 900 M⁻¹ s⁻¹
- Km [9]: 220 ± 70 µM
- kcat [9]: 0.13 ± 0.02 s⁻¹
- kcat/Km [9]: 600 ± 100 M⁻¹ s⁻¹
- Km [4]: 120 ± 20 µM
- kcat [4]: 0.0067 ± 0.0005 s⁻¹
- kcat/Km [4]: 50 ± 5 M⁻¹ s⁻¹
